Laboratory results published in PMC7897774.

Biological target: HLA-A*02:01
Assay: differential scanning fluorimetry

Row | Molecule | Tm of the peptide/HLA-A*02:01 complex [°C]
1 | F7A-modified PMEL_(209(2M)–217) epitope (peptide) | 61.7
2 | IMDQVPFSV [PMEL_(209(2M)–217) epitope (…)] | 61.9
